Assay results: paper PMC8956632

B1: 5-HT1AR-EGFP [human] / OX1R-Rluc [human] (parent)
chain 1: MDVLSPGQGNNTTSPPAPFETGGNTTGISDVTVSYQVITSLLLGTLIFCAVLGNACVVAAIALERSLQNVANYLIGSLAVTDLMVSVLVLPMAALYQVLNKWTLGQVTCDLFIALDVLCCTSSILHLCAIALDRYWAITDPIDYVNKRTPRRAAALISLTWLIGFLISIPPMLGWRTPEDRSDPDACTISKDHGYTIYSTFGAFYIPLLLMLVLYGRIFRAARFRIRKTVKKVEKTGADTRHGASPAPQPKKSVNGESGSRNWRLGVESKAGGALCANGAVRQGDDGAALEVIEVHRVGNSKEHLPLPSEAGPTPCAPASFERKNERNAEAKRKMALARERKTVKTLGIIMGTFILCWLPFFIVALVLPFCESSCHMPTLLGAIINWLGYSNSLLNPVIYAYFNKDFQNAFKKIIKCKFCRQ
chain 2: MEPSATPGAQMGVPPGSREPSPVPPDYEDEFLRYLWRDYLYPKQYEWVLIAAYVAVFVVALVGNTLVCLAVWRNHHMRTVTNYFIVNLSLADVLVTAICLPASLLVDITESWLFGHALCKVIPYLQAVSVSVAVLTLSFIALDRWYAICHPLLFKSTARRARGSILGIWAVSLAIMVPQAAVMECSSVLPELANRTRLFSVCDERWADDLYPKIYHSCFFIVTYLAPLGLMAMAYFQIFRKLWGRQIPGTTSALVRNWKRPSDQLGDLEQGLSGEPQPRARAFLAEVKQMRARRKTAKMLMVVLLVFALCYLPISVLNVLKRVFGMFRQASDREAVYACFTFSHWLVYANSAANPIIYNFLSGKFREQFKAAFSCCLPGLGPCGSLKAPSPRSSASHKSLSLQSRCSISKISEHVVLTSVTTVLP
B2: OX1R-EGFP [human] / 5-HT1AR-Rluc [human] (parent)
chain 1: B1 chain 2
chain 2: B1 chain 1

Variants of: B1
Test: BRET
Conditions: with OX1R-Rluc [human]; HEK293 cells, basal (no agonist); parent: 0.26; read off a plot

Compared with chain 1 MDVLSPGQGNNTTSPPAPFETGGNTTGISDVTVSYQVITSLLLGTLIFCAVLGNACVVAAIALERSLQNVANYLIGSLAVTDLMVSVLVLPMAALYQVLNKWTLGQVTCDLFIALDVLCCTSSILHLCAIALDRYWAITDPIDYVNKRTPRRAAALISLTWLIGFLISIPPMLGARTPEDRSDPDACTISKDHGYTIYSTFGAFYIPLLLMLVLYGRIFRAARFRIRKTVKKVEKTGADTRHGASPAPQPKKSVNGESGSRNWRLGVESKAGGALCANGAVRQGDDGAALEVIEVHRVGNSKEHLPLPSEAGPTPCAPASFERKNERNAEAKRKMALARERKTVKTLGIIMGTFILCWLPFFIVALVLPFCESSCHMPTLLGAIINWLGYSNSLLNPVIYAYFNKDFQNAFKKIIKCKFCRQ [chain 1 W175A], chain 1 MDVLSPGQGNNTTSPPAPFETGGNTTGISDVTVSYQVITSLLLGTLIFCAVLGNACVVAAIALERSLQNVANYLIGSLAVTDLMVSVLVLPMAALYQVLNKWTLGQVTCDLFIALDVLCCTSSILHLCAIALDRYWAITDPIDYVNKRTPRRAAALISLTWLIGFLISIPPMLGWRTPEDRSDPDACTISKDHGYTIASTFGAFYIPLLLMLVLYGRIFRAARFRIRKTVKKVEKTGADTRHGASPAPQPKKSVNGESGSRNWRLGVESKAGGALCANGAVRQGDDGAALEVIEVHRVGNSKEHLPLPSEAGPTPCAPASFERKNERNAEAKRKMALARERKTVKTLGIIMGTFILCWLPFFIVALVLPFCESSCHMPTLLGAIINWLGYSNSLLNPVIYAYFNKDFQNAFKKIIKCKFCRQ [chain 1 Y198A] is lower in response: 0.26 for the first, 0.23 for the second.

In the case of chain 1 MDVLSPGQGNNTTSPPAPFETGGNTTGISDVTVSYQVITSLLLGTLIFCAVLGNACVVAAIALERSLQNVANYLIGSLAVTDLMVSVLVLPMAALYQVLNKWTLGQVTCDLFIALDVLCCTSSILHLCAIALDRYWAITDPIDYVNKRTPARAAALISLTWLIGFLISIPPMLGWRTPEDRSDPDACTISKDHGYTIYSTFGAFYIPLLLMLVLYGRIFRAARFRIRKTVKKVEKTGADTRHGASPAPQPKKSVNGESGSRNWRLGVESKAGGALCANGAVRQGDDGAALEVIEVHRVGNSKEHLPLPSEAGPTPCAPASFERKNERNAEAKRKMALARERKTVKTLGIIMGTFILCWLPFFIVALVLPFCESSCHMPTLLGAIINWLGYSNSLLNPVIYAYFNKDFQNAFKKIIKCKFCRQ [chain 1 R151A], the response is reported as 0.16.

Variants of: B2
Test: BRET
Conditions: with 5-HT1AR-Rluc [human]; HEK293 cells, basal (no agonist); parent: 0.27; read off a plot

First: chain 1 MEPSATPGAQMGVPPGSREPSPVPPDYEDEFLRYLWRDYLYPKQYEWVLIAAYVAVFVVALVGNTLVCLAVWRNHHMRTVTNYFIVNLSLADVLVTAICLPASLLVDITESWLFGHALCKVIPYLQAVSVSVAVLTLSFIALDRWYAICHPLLFKSTARRARGSILGIWAVSLAIMVPQAAVMECSSVLPELANRTRLFSVCDERWADDLYPKIYHSCFFIVTYLAPLGAMAMAYFQIFRKLWGRQIPGTTSALVRNWKRPSDQLGDLEQGLSGEPQPRARAFLAEVKQMRARRKTAKMLMVVLLVFALCYLPISVLNVLKRVFGMFRQASDREAVYACFTFSHWLVYANSAANPIIYNFLSGKFREQFKAAFSCCLPGLGPCGSLKAPSPRSSASHKSLSLQSRCSISKISEHVVLTSVTTVLP [chain 1 L230A]
Second: chain 1 MEPSATPGAQMGVPPGSREPSPVPPDYEDEFLRYLWRDYLYPKQYEWVLIAAYVAVFVVALVGNTLVCLAVWRNHHMRTVTNYFIVNLSLADVLVTAICLPASLLVDITESWLFGHALCKVIPYLQAVSVSVAVLTLSFIALDRWYAICHPLLFKSTARAARGSILGIWAVSLAIMVPQAAVMECSSVLPELANRTRLFSVCDERWADDLYPKIYHSCFFIVTYLAPLGLMAMAYFQIFRKLWGRQIPGTTSALVRNWKRPSDQLGDLEQGLSGEPQPRARAFLAEVKQMRARRKTAKMLMVVLLVFALCYLPISVLNVLKRVFGMFRQASDREAVYACFTFSHWLVYANSAANPIIYNFLSGKFREQFKAAFSCCLPGLGPCGSLKAPSPRSSASHKSLSLQSRCSISKISEHVVLTSVTTVLP [chain 1 R160A]
The response of the first is lower: 0.21 for the first, 0.27 for the second.

First: chain 1 MEPSATPGAQMGVPPGSREPSPVPPDYEDEFLRYLWRDYLYPKQYEWVLIAAYVAVFVVALVGNTLVCLAVWRNHHMRTVTNYFIVNLSLADVLVTAICLPASLLVDITESWLFGHALCKVIPYLQAVSVSVAVLTLSFIALDRWYAICHPLLFKSTARRARGSILGIWAVSLAIMVPQAAVMECSSVLPELANRTRLFSVCDERWADDLYPKIYHSCFFIVTYAAPLGLMAMAYFQIFRKLWGRQIPGTTSALVRNWKRPSDQLGDLEQGLSGEPQPRARAFLAEVKQMRARRKTAKMLMVVLLVFALCYLPISVLNVLKRVFGMFRQASDREAVYACFTFSHWLVYANSAANPIIYNFLSGKFREQFKAAFSCCLPGLGPCGSLKAPSPRSSASHKSLSLQSRCSISKISEHVVLTSVTTVLP [chain 1 L225A]
Second: chain 1 MEPSATPGAQMGVPPGSREPSPVPPDYEDEFLRYLWRDYLYPKQYEWVLIAAYVAVFVVALVGNTLVCLAVWRNHHMRTVTNYFIVNLSLADVLVTAICLPASLLVDITESWLFGHALCKVIPYLQAVSVSVAVLTLSFIALDRWYAICHPLLFKSTARRARGSILGIWAVSLAIAVPQAAVMECSSVLPELANRTRLFSVCDERWADDLYPKIYHSCFFIVTYLAPLGLMAMAYFQIFRKLWGRQIPGTTSALVRNWKRPSDQLGDLEQGLSGEPQPRARAFLAEVKQMRARRKTAKMLMVVLLVFALCYLPISVLNVLKRVFGMFRQASDREAVYACFTFSHWLVYANSAANPIIYNFLSGKFREQFKAAFSCCLPGLGPCGSLKAPSPRSSASHKSLSLQSRCSISKISEHVVLTSVTTVLP [chain 1 M176A]
The response of the first is higher: 0.23 for the first, 0.15 for the second.
